The supplement of paper PMC9112550, “Optimization of the antimicrobial peptide Bac7 by deep mutational scanning” (BMC Biology, 2022)

Tested on: Escherichia coli TOP10
Assay: shrunken log2 fold change of peptide-encoding DNA abundance (4.5 h post-induction vs induction); higher = less antimicrobial activity (less host growth inhibition)
Conditions: time post-induction: 4.5 h; library: site-saturation at positions 5, 18, 19, 20
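Further: peptides expressed intracellularly from a pBAD plasmid library in pooled LB shake-flask culture, induced with 0.3% L-arabinose, DNA abundance read by NGS, three biological replicates, DESeq2 with apeglm shrinkage.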

Row | Sequence | shrunken log2 fold change
1 | RRIRARPPRLPRPRPRPKAHPRP | 0.491
2 | RRIRRRPPRLPRPRPRPGYGPRP | 0.238
3 | RRIRDRPPRLPRPRPRPRSMPRP | 0.211
4 | RRIRCRPPRLPRPRPRPYMAPRP | -0.283
5 | RRIRFRPPRLPRPRPRPAESPRP | -0.117
6 | RRIRNRPPRLPRPRPRPWWFPRP | -0.0934
7 | RRIRTRPPRLPRPRPRPITPPRP | -0.237
8 | RRIRLRPPRLPRPRPRPQHYPRP | -0.761
9 | RRIRFRPPRLPRPRPRPCNWPRP | 0.128
10 | RRIRMRPPRLPRPRPRPPVDPRP | 1.14
11 | RRIRERPPRLPRPRPRPNFNPRP | -0.376
12 | RRIRNRPPRLPRPRPRPIHNPRP | -0.976
13 | RRIRCRPPRLPRPRPRPNHFPRP | -0.484
14 | RRIRARPPRLPRPRPRPFPDPRP | 0.262
15 | RRIRWRPPRLPRPRPRPVMTPRP | 0.569
16 | RRIRWRPPRLPRPRPRPVGAPRP | 1.73
17 | RRIRARPPRLPRPRPRPRQTPRP | 0.535
18 | RRIRARPPRLPRPRPRPAFVPRP | 0.315
19 | RRIRVRPPRLPRPRPRPAPVPRP | 0.349
20 | RRIRFRPPRLPRPRPRPSGQPRP | -0.204
21 | RRIRRRPPRLPRPRPRPTVYPRP | -0.135
22 | RRIRSRPPRLPRPRPRPVLGPRP | 0.447

Row | Sequence | shrunken log2 fold change
23 | RRIRLRPPRLPRPRPRPAQQPRP | 0.0982
24 | RRIRKRPPRLPRPRPRPRMSPRP | -0.216
25 | RRIRERPPRLPRPRPRPGVHPRP | -0.139
26 | RRIRYRPPRLPRPRPRPVPNPRP | -0.0518
27 | RRIRWRPPRLPRPRPRPVSVPRP | -0.258
28 | RRIRIRPPRLPRPRPRPVGQPRP | -0.195
29 | RRIRTRPPRLPRPRPRPPENPRP | 0.201
30 | RRIRNRPPRLPRPRPRPSMGPRP | -0.0455
31 | RRIRSRPPRLPRPRPRPRDAPRP | 0.328
32 | RRIRCRPPRLPRPRPRPWFVPRP | -0.629
33 | RRIRSRPPRLPRPRPRPITAPRP | -0.0161
34 | RRIRPRPPRLPRPRPRPKQLPRP | 0.0245
35 | RRIRIRPPRLPRPRPRPSDFPRP | -0.611
36 | RRIRWRPPRLPRPRPRPEGNPRP | 0.29
37 | RRIRDRPPRLPRPRPRPWWCPRP | -0.00632
38 | RRIRDRPPRLPRPRPRPSMVPRP | -0.24
39 | RRIRNRPPRLPRPRPRPWAAPRP | -0.109
40 | RRIRERPPRLPRPRPRPGKSPRP | -0.00212
41 | RRIRERPPRLPRPRPRPLKCPRP | -0.11
42 | RRIRERPPRLPRPRPRPMAMPRP | 0.0346
43 | RRIRKRPPRLPRPRPRPTHCPRP | 0.251
44 | RRIRSRPPRLPRPRPRPKKLPRP | 0.0709

Row | Sequence | shrunken log2 fold change
45 | RRIRRRPPRLPRPRPRPICLPRP | 0.12
46 | RRIRCRPPRLPRPRPRPKNFPRP | -0.555
47 | RRIRERPPRLPRPRPRPICWPRP | 0.0372
48 | RRIRDRPPRLPRPRPRPWAGPRP | 0.0503
49 | RRIRVRPPRLPRPRPRPKYSPRP | -0.122
50 | RRIRVRPPRLPRPRPRPAQSPRP | 0.107
51 | RRIRYRPPRLPRPRPRPWYFPRP | -0.15
52 | RRIRKRPPRLPRPRPRPEIIPRP | -0.0419
53 | RRIRYRPPRLPRPRPRPYIWPRP | -0.29
54 | RRIRNRPPRLPRPRPRPNQFPRP | -0.376
55 | RRIRSRPPRLPRPRPRPIHGPRP | -0.159
56 | RRIRVRPPRLPRPRPRPGEDPRP | 0.0912
57 | RRIRTRPPRLPRPRPRPEVSPRP | -0.28
58 | RRIRCRPPRLPRPRPRPPAHPRP | 2.07
59 | RRIRLRPPRLPRPRPRPQMQPRP | 0.017
60 | RRIRIRPPRLPRPRPRPQKVPRP | -0.102
61 | RRIRVRPPRLPRPRPRPIRAPRP | -0.109
62 | RRIRVRPPRLPRPRPRPLDRPRP | -0.117
63 | RRIRVRPPRLPRPRPRPHIYPRP | -0.519
64 | RRIRDRPPRLPRPRPRPRYAPRP | 0.215
65 | RRIRVRPPRLPRPRPRPIVFPRP | 0.0602
66 | RRIRGRPPRLPRPRPRPDKVPRP | 0.32

Row | Sequence | shrunken log2 fold change
67 | RRIRERPPRLPRPRPRPYNAPRP | -1.26
68 | RRIRKRPPRLPRPRPRPGNVPRP | 0.00843
69 | RRIRCRPPRLPRPRPRPPWNPRP | -0.0539
70 | RRIRVRPPRLPRPRPRPSMRPRP | 0.477
71 | RRIRARPPRLPRPRPRPNCFPRP | 0.0761
72 | RRIRIRPPRLPRPRPRPKVCPRP | -0.028
73 | RRIRYRPPRLPRPRPRPYYAPRP | -0.634
74 | RRIRSRPPRLPRPRPRPAMNPRP | -0.66
75 | RRIRNRPPRLPRPRPRPHRIPRP | -0.0314
76 | RRIRWRPPRLPRPRPRPCSLPRP | -0.0592
77 | RRIRHRPPRLPRPRPRPAPWPRP | 0.0941
78 | RRIRPRPPRLPRPRPRPNINPRP | -0.795
79 | RRIRHRPPRLPRPRPRPNRIPRP | -0.46
80 | RRIRYRPPRLPRPRPRPNFMPRP | -0.821
81 | RRIRVRPPRLPRPRPRPICHPRP | -0.224
82 | RRIRLRPPRLPRPRPRPQPTPRP | 0.0811
83 | RRIRIRPPRLPRPRPRPKFPPRP | -0.204
84 | RRIRNRPPRLPRPRPRPVRDPRP | 0.177
85 | RRIRHRPPRLPRPRPRPCSLPRP | -0.115
86 | RRIRGRPPRLPRPRPRPPHSPRP | 0.568
87 | RRIRLRPPRLPRPRPRPDWEPRP | 0.0332
88 | RRIRCRPPRLPRPRPRPKRKPRP | 0.157

Row | Sequence | shrunken log2 fold change
89 | RRIRCRPPRLPRPRPRPPGAPRP | 0.678
90 | RRIRVRPPRLPRPRPRPFHVPRP | -0.262
91 | RRIRERPPRLPRPRPRPCFRPRP | -0.511
92 | RRIRHRPPRLPRPRPRPNAAPRP | 0.299
93 | RRIRCRPPRLPRPRPRPRRVPRP | 0.342
94 | RRIRQRPPRLPRPRPRPTQVPRP | -0.0311
95 | RRIRRRPPRLPRPRPRPFFQPRP | -0.111
96 | RRIRCRPPRLPRPRPRPSWWPRP | 0.205
97 | RRIRERPPRLPRPRPRPILPPRP | -0.182
98 | RRIRWRPPRLPRPRPRPKIFPRP | -0.249
99 | RRIRWRPPRLPRPRPRPMIGPRP | 0.384
100 | RRIRRRPPRLPRPRPRPDADPRP | 1.78
101 | RRIRKRPPRLPRPRPRPHFHPRP | 0.0831
102 | RRIRDRPPRLPRPRPRPTMDPRP | -0.0444
103 | RRIRTRPPRLPRPRPRPWITPRP | 0.0633
104 | RRIRYRPPRLPRPRPRPMQTPRP | -0.0135
105 | RRIRYRPPRLPRPRPRPTWAPRP | -0.0132
106 | RRIRVRPPRLPRPRPRPRPCPRP | 0.322
107 | RRIRWRPPRLPRPRPRPDACPRP | 0.00464
108 | RRIRWRPPRLPRPRPRPPQWPRP | 0.179
109 | RRIRCRPPRLPRPRPRPEPLPRP | 0.438
